Results on three molecules are retold here after patent publication US20240279622A1, “COELENTERAZINE-UTILIZING LUCIFERASES WITH STABLE GLOW-TYPE LIGHT EMISSION AND METHODS OF PRODUCING AND USING THEREOF” (MASARYKOVA UNIVERZITA, priority 2021, published 2024).

Series [1] can be described thus: Thermal unfolding by NanoDSF (tryptophan fluorescence). The class given is physicochemical. The conditions noted are these: for Tm / Tonset: 100 mM potassium phosphate buffer pH 7.5, 1° C./min. The protocol: Thermal unfolding was studied using NanoDSF Prometheus (NanoTemper, Germany) by monitoring tryptophan fluorescence over the temperature range of 20 to 90° C., at a heating rate of 1° C./min. The melting temperatures (Tonset and Tm) were evaluated directly by ThermControl v2.0.2.
In general terms: DSF heats the sample and reads unfolding from a dye or from intrinsic fluorescence.

A short description of series [2]: Stopped-flow pre-steady-state kinetics of substrate binding (tryptophan fluorescence quenching). The note with it: 15° C.; for k+1: pH 7.5, induced-fit binding mechanism. The protocol:
The measurement was performed at 15° C. in 100 mM potassium phosphate buffer pH 7.5. Rapid mixing of the components was achieved using the Stopped-Flow SFM 3000 combined with the MOS-500 spectrometer (BioLogic, France). The reaction was initiated by mixing 75 μL of an enzyme with 75 μL of coelenterazine and then monitored by the change of native tryptophan fluorescence (295 nm excitation, 340±13 nm emission). The fluorescence changes were caused by the quenching effect of the coelenterazine substrate upon its binding by an enzyme. The experiment was designed in two different modes, varying either the concentration of the coelenterazine substrate or the concentration of an enzyme. Each kinetic trace was measured in seven consecutive replicates and averaged. The concentration of coelenterazine in the final reaction mixture ranged from 0.9 to 90 μM while the concentration of luciferase enzymes ranged from 0.4 to 94 μM.
The collected double-exponential kinetic traces were fitted globally with the KinTek Explorer (KinTek Corporation, USA). The software allows for the input of a given kinetic model via a simple text description, and the program then derives the differential equations needed for numerical integration automatically. Numerical integration of rate equations searching a set of kinetic parameters that produce a minimum χ^2 value was performed using the Bulirsch-Stoer algorithm with adaptive step size, and nonlinear regression to fit data was based on the Levenberg-Marquardt method. Residuals were normalized by sigma values for each data point. The standard error was calculated from the covariance matrix during nonlinear regression. In addition to standard error values, more rigorous analysis of the variation of the kinetic parameters was accomplished by confidence contour analysis by using FitSpace Explorer (KinTek Corporation, USA). In these analyses, the lower and upper limits for each parameter were derived from the confidence contour obtained from setting the χ^2 threshold at 0.95.
The time-course of the fluorescence quenching upon substrate binding was described with Equation (7) according to the induced-fit binding mechanism and the mechanism was fit directly to the collected kinetic data to obtain the values of elementary rate constants describing the substrate binding process. The quality of the best fits was compared in terms of χ^2 values, “chi-by-eye” assessment, and confidence contour analysis assessing constraint and independency of the determined parameters which confirmed that the obtained values are well-defined by the collected kinetic data.

Series [3] is described as follows: Luminescence specific activity of the ancestral protein. The note with it: 7.9 μM coelenterazine, 37° C., compared to RLuc. The class given is biochemical. The protocol: Both the coelenterazine substrate and the AncHLD-RLuc enzyme were dissolved in 100 mM potassium phosphate buffer pH 7.5 and their resulting concentrations in the reaction mixture were 7.9 μM coelenterazine, 1.5 nM RLuc, and 2.8 μM AncHLD-RLuc. Bioluminescence activity traces were collected at 37° C. over the first 72.5 seconds immediately after injection of the substrate into the enzyme solution. The activity of each enzyme sample was measured in at least three independent experiments. The collected luminescence curves were integrated to obtain a linear increase of cumulative luminescence over time, while the slope gave the final value of activity, represented in RLU·s^−1. For each enzyme, the calculated activity was related to one milligram of the enzyme to get the final value of specific activity in RLU·s^−1·mg^−1.

Series [4] in a line: Steady-state kinetic analysis of full-conversion cumulative luminescence curves. The class given is biochemical. The protocol:
Each luminescence trace was measured in 3 repetitions. The concentration of coelenterazine in the final reaction mixture ranged from 0.2 to 7.9 μM while the concentration of luciferase enzymes ranged from 17 to 640 nM.
An updated protocol applying new standards for collecting and fitting steady-state kinetic data was used. Unlike the classical initial velocity analysis, which requires a sophisticated luminometer calibration and quantum yield evaluation, luminescence data were recorded when letting the reaction proceed to completion beyond the initial linear phase. The recorded luminescence traces (rate vs. time) were transformed to reaction progress curves corresponding to cumulative luminescence in time. The transformed kinetic data (product vs. time) were fitted globally with the KinTek Explorer (KinTek Corporation, USA). The software allows for the input of a given kinetic model via a simple text description, and the program then derives the differential equations needed for numerical integration automatically.
Numerical integration of rate equations searching a set of kinetic parameters that produce a minimum χ^2 value was performed using the Bulirsch-Stoer algorithm with adaptive step size, and nonlinear regression to fit data was based on the Levenberg-Marquardt method. To account for fluctuations in experimental data, enzyme or substrate concentrations were slightly adjusted (5%) to derive best fits. Residuals were normalized by sigma values for each data point. The standard error was calculated from the covariance matrix during nonlinear regression. In addition to standard error values, more rigorous analysis of the variation of the kinetic parameters was accomplished by confidence contour analysis by using FitSpace Explorer (KinTek Corporation, USA). In these analyses, the lower and upper limits for each parameter were derived from the confidence contour obtained from setting χ^2 threshold at 0.9. The scaling factor, relating luminescence signal to product concentration, was applied as one of the fitted parameters, well constrained by end-point levels of kinetic traces recorded at particular substrate concentrations. Depletion of the available substrate after the reaction was ensured by repeated injection of the fresh enzyme.
The steady-state model, described by Equation (4), was used to obtain the values of turnover number kcat, Michaelis constant Km, and equilibrium dissociation constant for enzyme-product complex Kp. A conservative estimate for diffusion-limited substrate and product binding k1 and k3 (100 μM^−1·s^−1) was used as a fixed value to mimic the rapid equilibrium assumption. An alternative form of the model, described by Equation (5), was used to obtain estimates of kcat/Km directly by setting k−1=0.

Series [5] is described as follows: Anaerobic equilibrium binding of coelenterazine substrate (fluorescence). The protocol:
The experiments were performed under strictly anaerobic conditions to prevent enzymatic oxidation of interacting ligands. To do so, all the equipment and material, including water, buffer, pipettes, tips, syringes, microplates, and sealing, were made anaerobic by incubating them overnight in the anaerobic glovebox Belle MR2 (Belle Technology, UK). The box was filled with ultra-high purity (UHP) nitrogen atmosphere containing the residual oxygen concentration of 2.3 ppm, as determined by the oxygen meter O2M-3 (Belle Technology, UK). Liquids were aliquoted to the volume of maximally 50 mL and were stirred overnight in the box to release any dissolved oxygen. Two hours prior to the experiment, a closed bottle with an evacuated lyophilized enzyme (oxygen depleted) was put into the glovebox, dissolved with anaerobic water, and incubated to remove any remaining oxygen possibly dissolved in the solution. Similarly, the stock solution of coelenterazine or coelenteramide in ethanol, which was long-term stored in a freezer under the nitrogen atmosphere without oxygen, was put into the glovebox in a closed bottle. A small aliquot of coelenterazine/coelenteramide was transferred into a new empty bottle and kept open for about 20 minutes to remove the remaining dissolved oxygen. After the incubation, a few microliters of an enzyme were mixed with the same amount of coelenterazine, and the mixture was visually inspected for any possible bioluminescence. If no light was observed and the mixture remained yellow even after a minute, all the reagents were ready for anaerobic measurements.
In the anaerobic glovebox, 200 μL of a differently concentrated enzyme was put into a separate well in a microplate and into each of these wells, 5 μL of coelenterazine or coelenteramide stock solution was added. As a blank, 200 μL of the enzyme was mixed with 5 μL of ethanol for each enzyme concentration. […] The extent of coelenterazine binding at each concentration was determined by measuring fluorescence spectra ranging from 480 to 580 nm upon excitation at 420 nm using the microplate spectrophotometer Varioskan LUX (Thermo Scientific, USA). Binding of coelenteramide was monitored by measuring fluorescence spectra ranging from 350 to 700 nm upon excitation at 330 nm. […]
The obtained fluorescence spectra were visually inspected for characteristic peaks, and the value of the maximal fluorescence intensity Fluomax at these peaks was plotted against the enzyme concentration. The final value of the dissociation constant Kd was determined by fitting the dependence with the hyperbolic Equation (8) using the software Origin 6.1 (OriginLab, USA).

Series [6] is described as follows: Anaerobic equilibrium binding of coelenteramide product (fluorescence). The note with it: pH 7.5, 30° C., read-out: Dissociation constant Kd, Coelenteramide product. The protocol: The experiments were performed under strictly anaerobic conditions to prevent enzymatic oxidation of interacting ligands. To do so, all the equipment and material, including water, buffer, pipettes, tips, syringes, microplates, and sealing, were made anaerobic by incubating them overnight in the anaerobic glovebox Belle MR2 (Belle Technology, UK). The box was filled with ultra-high purity (UHP) nitrogen atmosphere containing the residual oxygen concentration of 2.3 ppm, as determined by the oxygen meter O2M-3 (Belle Technology, UK). Liquids were aliquoted to the volume of maximally 50 mL and were stirred overnight in the box to release any dissolved oxygen. […] If no light was observed and the mixture remained yellow even after a minute, all the reagents were ready for anaerobic measurements.
In the anaerobic glovebox, 200 μL of a differently concentrated enzyme was put into a separate well in a microplate and into each of these wells, 5 μL of coelenterazine or coelenteramide stock solution was added. […] The extent of coelenterazine binding at each concentration was determined by measuring fluorescence spectra ranging from 480 to 580 nm upon excitation at 420 nm using the microplate spectrophotometer Varioskan LUX (Thermo Scientific, USA). Binding of coelenteramide was monitored by measuring fluorescence spectra ranging from 350 to 700 nm upon excitation at 330 nm. […]

For series [7] the following is noted: pH 7.5.
Protocol: Solid coelenterazine was dissolved in ice-cold ethanol and stored under a nitrogen atmosphere in dark glass vials at −20° C. Before each measurement, the concentration and maintained quality of the ethanol stock solutions were verified spectrophotometrically. A buffer solution of coelenterazine was prepared by mixing an appropriate volume of the ethanol stock solution with 100 mM phosphate buffer pH 7.5 immediately before the measurement. Tested luciferase enzyme samples were dissolved in the same 100 mM phosphate buffer pH 7.5. The enzymatic reaction was initiated inside the microplate reader FLUOstar OPTIMA (BMG Labtech, Germany) by the automatic addition of 225 μL buffer solution of coelenterazine into a microplate well containing 25 μL of enzyme solution. The resulting bioluminescence activity traces were collected at 37° C. until the luminescence intensity decreased to less than 0.5% of its maximal measured value. Each luminescence trace was measured in 3 repetitions. The concentration of coelenterazine in the final reaction mixture was 2.2 μM while the concentration of luciferase enzymes was 50 nM. The obtained luminescence kinetic data were fitted to an exponential decay or a logistic model using Origin 6.1 (OriginLab, USA) and the value of half-life t1/2, defined as the time when the initial luminescence signal decreased to 50%, was calculated.
The conditions of series [8]: compared to RLuc; cited from earlier work.
For series [9] the following is noted: from Loening et al. (2006); cited from earlier work.

Where two headings read alike, the source gives them in different places. Where only a bound is given, the exact number is not on record here.

B1: AncHLD-RLuc: Reconstructed most-likelihood ancestral protein of Renilla reniformis luciferase and haloalkane dehalogenases (protein)
chain: MVSASQRTTSTATGDEWWAKCKQVDVLDSEMSYYDSDPGKHKNTVIFLHGNPTSSYLWRNVIPHVEPLARCLAPDLIGMGKSGKLPNHSYRFVDHYRYLSAWFDSVNLPEKVTIVCHDWGSGLGFHWCNEHRDRVKGIVHMESVVSPLKGWESFPETARDIFQALRSEAGEEMVLKKNFFIERLLPSSIMRKLSEEEMDAYREPFVEPGESRRPTLTWPREIPIKGDGPEDVIEIVKSYNKWLSTSKDIPKLFINADPGFFSNAIKKVTKNWPNQKTVTVKGLHFLQEDSPEEIGEAIADFLNELTK
modifications: Ancestral protein of Renilla reniformis luciferase
Regarding B1, in [1], the Tm (commonly the temperature at the midpoint of the melting transition) stood at 64.9 ± 0.1 °C and the Tonset was 57.4 ± 0.1 °C. Also, in [1] (difference to RLuc), the “Apparent melting temperature higher than RLuc” value amounted to 21.2 °C. Also, the “k−1” value in [2] (pH 7.5) is 0.118 ± 0.071 s⁻¹. Also, the “k+1” value in series [2] came out at 3000 ± 3000 M⁻¹ s⁻¹. Further, the “Bioluminescence activity lower than the modern luciferase enzyme” value in series [3] is listed as > 100,000 fold.

B2: RLuc8: Eight-point mutant of RLuc (A55T, C124A, S130A, K136R, A143M, M185V, M253L, and S287L) (protein)
chain: MTSKVYDPEQRKRMITGPQWWARCKQMNVLDSFINYYDSEKHAENAVIFLHGNATSSYLWRHVVPHIEPVARCIIPDLIGMGKSGKSGNGSYRLLDHYKYLTAWFELLNLPKKIIFVGHDWGAALAFHYAYEHQDRIKAIVHMESVVDVIESWDEWPDIEEDIALIKSEEGEKMVLENNFFVETVLPSKIMRKLEPEEFAAYLEPFKEKGEVRRPTLSWPREIPLVKGGKPDVVQIVRNYNAYLRASDDLPKLFIESDPGFFSNAIVEGAKKFPNTEFVKVKGLHFLQEDAPDEMGKYIKSFVERVLKNEQ
modifications: RLuc8
For the molecule B2, the kcat – broadly, the number of substrate molecules converted per active site and unit of time at saturation – in series [4] (100 mM phosphate buffer pH 7.5, 37° C.) was determined as 4.7 ± 0.1 s⁻¹. For the same molecule, the Kd in series [4] (100 mM phosphate buffer pH 7.5, 37° C., read-out: Kp (equilibrium dissociation constant for enzyme-product complex)) turned out to be 1.18 ± 0.05 µM. The Glow-type effectivity in series [4] (kcat/Km divided by Km/Kp) came out at 2.3 ± 0.2. In [1], the Tm was found to be 45.0 ± 0.1 °C and the Tonset was 35.2 ± 0.1 °C. Further, in [2] (pH 7.5), the “k+2” value was 26.6 ± 1.1 s⁻¹, the “k−1” value turned out to be 305 ± 5 s⁻¹ and the “k−2” value amounted to 23.4 ± 0.2 s⁻¹. In addition, in series [2], the “k+1” value amounted to 2.35e+06 ± 40000 M⁻¹ s⁻¹. In addition, the Kd in [5] (anaerobic, pH 7.5, 30° C., read-out: Dissociation constant Kd, Coelenterazine substrate) turned out to be 37 ± 15 µM. Moreover, the Kd ratio substrate/product in series [5] (ratio) was determined as 1.7 ± 0.7. Besides, the Kd in series [6] amounted to 22 ± 2 µM. Moreover, the “Half-life (t1/2)” value in [7] worked out at 6.36 ± 0.06 s. Besides, in series [8], the Bioluminescence activity improvement is given as 4.3 fold.

B3: RLuc: Luciferase isolated from the sea pansy Renilla reniformis (protein)
chain: MTSKVYDPEQRKRMITGPQWWARCKQMNVLDSFINYYDSEKHAENAVIFLHGNAASSYLWRHVVPHIEPVARCIIPDLIGMGKSGKSGNGSYRLLDHYKYLTAWFELLNLPKKIIFVGHDWGACLAFHYSYEHQDKIKAIVHAESVVDVIESWDEWPDIEEDIALIKSEEGEKMVLENNFFVETMLPSKIMRKLEPEEFAAYLEPFKEKGEVRRPTLSWPREIPLVKGGKPDVVQIVRNYNAYLRASDDLPKMFIESDPGFFSNAIVEGAKKFPNTEFVKVKGLHFSQEDAPDEMGKYIKSFVERVLKNEQ
modifications: RLuc
On to B3, for which, in series [1], the melting temperature (Tm) amounted to 43.7 ± 0.1 °C and the Tonset amounted to 36.3 ± 0.2 °C. The “Half-life (t1/2)” value in [7] worked out at 16.4 ± 0.06 s. Moreover, the kcat in series [9] is 3.9 ± 0.4 s⁻¹.
